Results from patent US20090166224A1.

Columns and labels:
[1] = biological target: ALPHA-2-HS-GLYCOPROTEIN (human) (UniProt P02765); assay: untreated sample on M-LAC column, displacer fraction, peak area of peptide …
[2] = biological target: Alpha-1-acid-glycoprotein (human) (UniProt P02763); assay: as above
[3] = biological target: Beta-2-glycoprotein (human) (UniProt P02749); assay: as above
HAPTOGLOBIN-2 (human) [4] = biological target: HAPTOGLOBIN-2 (human) (UniProt P00738); assay: as above
SERO… (human) [5] = biological target: SERO… (human) (UniProt P02787); assay: as above
[6] = biological target: Alpha-1-acid-glycoprotein in neuraminidase-treated serum (human) (UniProt P02763); assay: neuraminidized sample on M-LAC column, displacer fraction, peak area of peptide …
[7] = biological target: Alpha-2HS-glycoprotein in neuraminidase-treated serum (human) (UniProt P02765); assay: as above
[8] = biological target: Beta-2-glycoprotein in neuraminidase-treated serum (human) (UniProt P02749); assay: as above
Chain of Beta-2-glycoprotein in neuraminidase-treated serum (human) (P02749 20-345 limits assumed): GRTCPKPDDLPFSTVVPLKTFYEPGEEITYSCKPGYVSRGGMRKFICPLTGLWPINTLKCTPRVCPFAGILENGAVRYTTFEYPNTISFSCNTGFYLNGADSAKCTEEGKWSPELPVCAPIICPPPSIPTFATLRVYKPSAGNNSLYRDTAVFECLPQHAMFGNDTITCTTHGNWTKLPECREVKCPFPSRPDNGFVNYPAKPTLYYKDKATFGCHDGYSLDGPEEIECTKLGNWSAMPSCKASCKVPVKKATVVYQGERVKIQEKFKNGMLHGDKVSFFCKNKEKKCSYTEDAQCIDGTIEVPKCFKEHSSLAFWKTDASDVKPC

[9] = biological target: Haptoglobin in neuraminidase-treated serum (human) (UniProt P00738); assay: as above
Chain of Haptoglobin in neuraminidase-treated serum (human) (P00738 19-406 limits assumed): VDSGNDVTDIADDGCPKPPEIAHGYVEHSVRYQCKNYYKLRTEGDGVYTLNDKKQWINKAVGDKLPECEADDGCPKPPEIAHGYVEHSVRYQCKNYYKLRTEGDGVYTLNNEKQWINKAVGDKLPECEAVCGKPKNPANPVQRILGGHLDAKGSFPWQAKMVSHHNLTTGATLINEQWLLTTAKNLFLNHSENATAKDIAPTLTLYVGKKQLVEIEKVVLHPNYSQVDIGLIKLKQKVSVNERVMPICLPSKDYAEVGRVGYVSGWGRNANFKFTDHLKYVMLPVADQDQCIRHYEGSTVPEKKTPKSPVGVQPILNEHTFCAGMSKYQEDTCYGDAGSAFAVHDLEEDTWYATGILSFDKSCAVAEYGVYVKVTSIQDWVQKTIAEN

[10] = biological target: asialotransferrin (human) (UniProt P02787); assay: as above
[11] = biological target: APOLIPOPROTEIN A-I (human) (UniProt P02647); assay: human serum on M-LAC column, displacer fraction, LC-MS/MS; smaller rank = more abundant
[12] = biological target: ALPHA-2-HS-GLYCOPROTEIN (human) (UniProt P02765); assay: human serum on M-LAC column, displacer fraction, extracted ion chromatogram of peptide …
[13] = biological target: Alpha-1-acid-glycoprotein (human) (UniProt P02763); assay: as above
[14] = biological target: Beta-2-glycoprotein (human) (UniProt P02749); assay: as above
HAPTOGLOBIN-2 (human) [15] = biological target: HAPTOGLOBIN-2 (human) (UniProt P00738); assay: as above
SERO… (human) [16] = biological target: SERO… (human) (UniProt P02787); assay: as above
[17] = biological target: APOLIPOPROTEIN A-I (human) (UniProt P02647); assay: as above
CERULOPLASMIN (human) = CERULOPLASMIN (human) (UniProt P00450); assay: as above
Chain of UniProt P00450 (P00450 20-1065 limits assumed): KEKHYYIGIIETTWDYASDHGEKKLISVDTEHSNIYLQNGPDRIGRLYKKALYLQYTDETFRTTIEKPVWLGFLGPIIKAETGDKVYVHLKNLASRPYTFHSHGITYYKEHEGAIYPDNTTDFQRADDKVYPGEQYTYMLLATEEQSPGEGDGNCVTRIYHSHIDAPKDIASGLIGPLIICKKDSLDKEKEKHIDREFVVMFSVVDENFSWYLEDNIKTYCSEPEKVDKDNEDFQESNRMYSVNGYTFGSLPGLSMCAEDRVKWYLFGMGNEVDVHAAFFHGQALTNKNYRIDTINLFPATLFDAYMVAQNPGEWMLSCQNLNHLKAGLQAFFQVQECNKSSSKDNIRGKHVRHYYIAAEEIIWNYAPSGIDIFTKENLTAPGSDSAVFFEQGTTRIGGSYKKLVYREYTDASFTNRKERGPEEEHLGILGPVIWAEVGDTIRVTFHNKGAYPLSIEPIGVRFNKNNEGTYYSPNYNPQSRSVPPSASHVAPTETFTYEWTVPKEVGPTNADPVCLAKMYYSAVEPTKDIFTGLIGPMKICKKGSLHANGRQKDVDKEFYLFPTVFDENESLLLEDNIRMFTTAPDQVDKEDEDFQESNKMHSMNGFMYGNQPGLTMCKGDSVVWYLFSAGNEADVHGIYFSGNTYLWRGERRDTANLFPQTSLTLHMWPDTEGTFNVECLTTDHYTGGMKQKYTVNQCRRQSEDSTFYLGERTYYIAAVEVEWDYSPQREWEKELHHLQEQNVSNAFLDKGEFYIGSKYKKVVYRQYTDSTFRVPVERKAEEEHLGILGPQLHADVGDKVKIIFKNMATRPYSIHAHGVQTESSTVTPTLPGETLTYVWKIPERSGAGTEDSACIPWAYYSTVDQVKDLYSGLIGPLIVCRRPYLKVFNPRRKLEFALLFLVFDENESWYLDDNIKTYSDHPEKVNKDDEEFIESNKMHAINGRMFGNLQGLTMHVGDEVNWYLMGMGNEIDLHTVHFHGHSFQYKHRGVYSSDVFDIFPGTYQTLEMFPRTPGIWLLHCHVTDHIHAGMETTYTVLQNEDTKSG

[18] = biological target: Alpha-1-acid-glycoprotein in fucosidase-treated serum (human) (UniProt P02763); assay: fucosidase-treated serum on M-LAC column, displacer fraction, LC-MS/MS; smaller rank = more abundant
[19] = biological target: Apolipoprotein A-I in fucosidase-treated serum (human) (UniProt P02647); assay: as above
[20] = biological target: Ceruloplasmin in fucosidase-treated serum (human) (UniProt P00450); assay: as above
Chain of Ceruloplasmin in fucosidase-treated serum (human) (P00450 20-1065 limits assumed): as above

[21] = biological target: Haptoglobin in fucosidase-treated serum (human) (UniProt P00738); assay: as above
Chain of Haptoglobin in fucosidase-treated serum (human) (P00738 19-406 limits assumed): as the sequence (P00738 19-406 limits assumed) above

[22] = biological target: Alpha-1-acid-glycoprotein in fucosidase-treated serum (human) (UniProt P02763); assay: fucosidase-treated serum on M-LAC column, displacer fraction, extracted ion chromatogram of peptide …
[23] = biological target: Apolipoprotein A-I in fucosidase-treated serum (human) (UniProt P02647); assay: as above
[24] = biological target: Ceruloplasmin in fucosidase-treated serum (human) (UniProt P00450); assay: as above
[25] = biological target: Haptoglobin in fucosidase-treated serum (human) (UniProt P00738); assay: as above
… ZONE PROTEIN (human) = … ZONE PROTEIN (human) (UniProt P20742); assay: human serum on M-LAC column, displacer fraction, extracted ion chromatogram of peptide … (so in the source)
Chain of … ZONE PROTEIN (human) (P20742 26-1482 limits assumed): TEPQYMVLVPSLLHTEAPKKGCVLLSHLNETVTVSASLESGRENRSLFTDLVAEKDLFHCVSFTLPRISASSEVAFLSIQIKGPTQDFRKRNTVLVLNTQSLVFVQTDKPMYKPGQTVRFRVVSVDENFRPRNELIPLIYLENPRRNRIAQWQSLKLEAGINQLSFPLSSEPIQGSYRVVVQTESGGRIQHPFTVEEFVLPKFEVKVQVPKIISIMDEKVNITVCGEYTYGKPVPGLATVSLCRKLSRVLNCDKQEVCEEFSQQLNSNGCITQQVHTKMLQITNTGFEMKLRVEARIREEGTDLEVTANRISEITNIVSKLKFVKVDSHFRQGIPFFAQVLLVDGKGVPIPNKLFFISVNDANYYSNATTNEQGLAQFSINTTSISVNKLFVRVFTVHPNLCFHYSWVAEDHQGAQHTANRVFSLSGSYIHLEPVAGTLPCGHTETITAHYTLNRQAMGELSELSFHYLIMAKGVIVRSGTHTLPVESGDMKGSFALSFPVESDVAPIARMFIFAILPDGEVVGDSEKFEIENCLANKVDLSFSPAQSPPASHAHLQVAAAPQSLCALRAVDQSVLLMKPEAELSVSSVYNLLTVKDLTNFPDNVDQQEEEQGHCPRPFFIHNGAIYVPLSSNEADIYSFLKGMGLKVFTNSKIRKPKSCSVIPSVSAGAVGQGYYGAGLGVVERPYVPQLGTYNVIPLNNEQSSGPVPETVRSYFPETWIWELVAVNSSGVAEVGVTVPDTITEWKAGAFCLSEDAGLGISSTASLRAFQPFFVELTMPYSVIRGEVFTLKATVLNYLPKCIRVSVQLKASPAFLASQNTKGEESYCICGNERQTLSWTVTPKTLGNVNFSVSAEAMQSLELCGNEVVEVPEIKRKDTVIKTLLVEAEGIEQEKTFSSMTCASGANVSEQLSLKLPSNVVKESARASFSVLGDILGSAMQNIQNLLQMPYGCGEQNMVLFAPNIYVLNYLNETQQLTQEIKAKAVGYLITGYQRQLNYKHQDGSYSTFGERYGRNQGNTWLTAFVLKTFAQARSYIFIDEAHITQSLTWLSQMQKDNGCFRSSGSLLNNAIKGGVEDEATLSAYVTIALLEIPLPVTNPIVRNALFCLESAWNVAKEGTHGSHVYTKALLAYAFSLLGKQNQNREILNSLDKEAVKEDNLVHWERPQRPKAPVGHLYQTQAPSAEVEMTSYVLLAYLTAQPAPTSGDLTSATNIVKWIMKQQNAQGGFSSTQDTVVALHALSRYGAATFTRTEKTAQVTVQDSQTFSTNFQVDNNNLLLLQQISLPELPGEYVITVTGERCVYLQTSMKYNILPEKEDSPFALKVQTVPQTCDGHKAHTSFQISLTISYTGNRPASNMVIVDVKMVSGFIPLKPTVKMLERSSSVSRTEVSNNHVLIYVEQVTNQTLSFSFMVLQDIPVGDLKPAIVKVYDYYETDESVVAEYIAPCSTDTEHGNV

[26] = biological target: Alpha-1-acid-glycoprotein in neuraminidase-treated serum (human) (UniProt P02763); assay: neuraminidase-treated serum on M-LAC column, displacer fraction, LC-MS/MS; smaller rank = more abundant
[27] = biological target: Haptoglobin in neuraminidase-treated serum (human) (UniProt P00738); assay: as above
[28] = biological target: Alpha-1-acid-glycoprotein in neuraminidase-treated serum (human) (UniProt P02763); assay: neuraminidase-treated serum on M-LAC column, displacer fraction, extracted ion chromatogram of peptide …
[29] = biological target: Alpha-2HS-glycoprotein in neuraminidase-treated serum (human) (UniProt P02765); assay: as above
[30] = biological target: Beta-2-glycoprotein in neuraminidase-treated serum (human) (UniProt P02749); assay: as above
[31] = biological target: Haptoglobin in neuraminidase-treated serum (human) (UniProt P00738); assay: as above
HAPTOGLOBIN-2 (human) [32] = biological target: HAPTOGLOBIN-2 (human) (UniProt P00738); assay: human serum on Con A/WGA/Jacalin column, lectin-specific displacer fraction, LC-MS/MS; grade = SEQUEST rank group (+ = ranks 1-5, ++++ = 16-20)

Chain of HAPTOGLOBIN-2 (human) (P00738 19-406 limits assumed): as the sequence (P00738 19-406 limits assumed) above

Substance | peptide peak area in displacer fraction [1] | peptide peak area in displacer fraction [2] | peptide peak area in displacer fraction [3] | peptide peak area in displacer fraction (HAPTOGLOBIN-2 (human) [4]) | peptide peak area in displacer fraction (SERO… (human) [5]) | peptide peak area in displacer fraction [6] | peptide peak area in displacer fraction [7] | peptide peak area in displacer fraction [8] | peptide peak area in displacer fraction [9] | peptide peak area in displacer fraction [10] | SEQUEST rank in displacer fraction [11] | peptide peak area in displacer fraction [12] [counts] | peptide peak area in displacer fraction [13] [counts] | peptide peak area in displacer fraction [14] [counts] | peptide peak area in displacer fraction (HAPTOGLOBIN-2 (human) [15]) [counts] | peptide peak area in displacer fraction (SERO… (human) [16]; peptide at M/Z 530.2) [counts] | peptide peak area in displacer fraction (SERO… (human) [16]; peptide at M/Z 790.1) [counts] | peptide peak area in displacer fraction [17] [counts] | peptide peak area in displacer fraction (CERULOPLASMIN (human)) [counts] | SEQUEST rank in displacer fraction [18] | also measured
Concanavalin A (Con A), agarose-bound (from UniProt P02866 30-281) | 2.6 | 9.2 | 3.5 | 39.3 | 23 | 10.7 | 2.6 | 8.4 | 46.9 | 36 | 19 | 2.6e+06 | 9.2e+06 | 3.5e+06 | 3.9e+07 | 2e+07 | 7.8e+06 | 1.2e+07 | 7.8e+06 | 38 | SEQUEST rank in displacer fraction [19]: 12; SEQUEST rank in displacer fraction [20]: 8; SEQUEST rank in displacer fraction [21]: 5; peptide peak area in displacer fraction [22]: 1e+07 counts; peptide peak area in displacer fraction [23]: 1.2e+07 counts; peptide peak area in displacer fraction [24]: 9.8e+06 counts; peptide peak area in displacer fraction [25]: 5.1e+07 counts; peptide peak area in displacer fraction (… ZONE PROTEIN (human)): 6.6e+06 counts; SEQUEST rank in displacer fraction [26]: 96; SEQUEST rank in displacer fraction [27]: 7; peptide peak area in displacer fraction [28]: 1.1e+07 counts; peptide peak area in displacer fraction [29]: 2.6e+06 counts; peptide peak area in displacer fraction [30]: 8.4e+06 counts; peptide peak area in displacer fraction [31]: 4.7e+07 counts; SEQUEST ranking (relative abundance in the Con A displacement fraction) (HAPTOGLOBIN-2 (human) [32]): 6 to 10 rank
Jacalin lectin, agarose-bound (from UniProt P18670 1-133; P18671 1-20) | 4 | 9.7 | 2.6 | 10.1 | 20 | 12.3 | 7.4 | 3.8 | 12.6 | 28 | 4 | 4e+06 | 9.7e+06 | 2.6e+06 | 1e+07 | 1.9e+07 | 7e+06 | 4e+07 | 2e+06 | 19 | SEQUEST rank in displacer fraction [19]: 5; SEQUEST rank in displacer fraction [20]: 6; SEQUEST rank in displacer fraction [21]: 7; peptide peak area in displacer fraction [22]: 1.7e+07 counts; peptide peak area in displacer fraction [23]: 4.3e+07 counts; peptide peak area in displacer fraction [24]: 6.2e+06 counts; peptide peak area in displacer fraction [25]: 2.2e+07 counts; peptide peak area in displacer fraction (… ZONE PROTEIN (human)): 0 counts; SEQUEST rank in displacer fraction [26]: 27; SEQUEST rank in displacer fraction [27]: 9; peptide peak area in displacer fraction [28]: 1.2e+07 counts; peptide peak area in displacer fraction [29]: 7.4e+06 counts; peptide peak area in displacer fraction [30]: 3.8e+06 counts; peptide peak area in displacer fraction [31]: 1.3e+07 counts; SEQUEST ranking (relative abundance in the Jacalin displacement fraction) (HAPTOGLOBIN-2 (human) [32]): 11 to 15 rank
wheat germ agglutinin (WGA), agarose-bound (from UniProt P10968 27-197) | 1.7 | 129 | 1.8 | 236 | 8.1 | 0 | 0.9 | 0 | 163 | 1.6 | 10 | 1.7e+06 | 1.29e+08 | 1.8e+06 | 2.36e+08 | 7.7e+06 | 5e+06 | 6e+07 | 9.1e+06 | 9 | SEQUEST rank in displacer fraction [19]: 24; SEQUEST rank in displacer fraction [20]: 28; SEQUEST rank in displacer fraction [21]: 2; peptide peak area in displacer fraction [22]: 5e+07 counts; peptide peak area in displacer fraction [23]: 1.6e+07 counts; peptide peak area in displacer fraction [24]: 1.1e+07 counts; peptide peak area in displacer fraction [25]: 8.2e+07 counts; peptide peak area in displacer fraction (… ZONE PROTEIN (human)): 1.1e+07 counts; SEQUEST rank in displacer fraction [26]: 23; SEQUEST rank in displacer fraction [27]: 2; peptide peak area in displacer fraction [28]: 0 counts; peptide peak area in displacer fraction [29]: 900000 counts; peptide peak area in displacer fraction [30]: 0 counts; peptide peak area in displacer fraction [31]: 1.63e+08 counts; SEQUEST ranking (relative abundance in the WGA displacement fraction) (HAPTOGLOBIN-2 (human) [32]): 1 to 5 rank
